Experimental data published in US20230406885A1, “CYCLIC PEPTIDES FOR TRAPPING INTERLEUKIN-1 BETA” (MERCK SHARP & DOHME LLC, priority 2022, published 2023).
*1 amine or outer side, *2 acyl side, *3 side chain or, on linkers, in order; H or OH if unused. [ ]: non-standard residue; d: D form. TyrEtNAc = L-tyrosine O-ethyl acetamide, (S)-3-(4-(2-acetamidoethoxy)phenyl)-2-aminopropanoic acid, CC(=O)NCCOc1ccc(C[C@H](N[*:1])C(=O)[*:2])cc1; hF3CF3 = (S)-2-amino-4-(3-(trifluoromethyl)phenyl)butanoic acid, O=C([C@H](CCc1cccc(C(F)(F)F)c1)N[*:1])[*:2]; Cha44F2 = (S)-2-amino-3-(4,4-difluorocyclohexyl)propanoic acid, O=C([C@H](CC1CCC(F)(F)CC1)N[*:1])[*:2]; AbuMph = (S)-2-amino-4-morpholinobutanoic acid, O=C([C@H](CCN1CCOCC1)N[*:1])[*:2]; Trp(4-Cl)(βS-Me) = C[C@@H](c1c[nH]c2cccc(Cl)c12)[C@H](N)C(=O)O; Pro(trans-4-NH2) = O=C([C@@H]1C[C@@H](N[*:3])CN1[*:1])[*:2]; Bip(4'-COOH) = N[C@@H](Cc1ccc(-c2ccc(C(=O)O)cc2)cc1)C(=O)O; Phe(4-COOH) = N[C@@H](Cc1ccc(C(=O)O)cc1)C(=O)O; hTyr = N[C@@H](CCc1ccc(O)cc1)C(=O)O; hPhe = N[C@@H](CCc1ccccc1)C(=O)O; 4Pal = N[C@@H](Cc1ccncc1)C(=O)O; Dap(Me2) = CN(C)C[C@H](N)C(=O)O; dDab = NCC[C@@H](N)C(=O)O; dNMeA = CN[C@H](C)C(=O)O; Dab = NCC[C@H](N)C(=O)O; Nva = CCC[C@H](N)C(=O)O; Dap = NC[C@H](N)C(=O)O

Biological target: Recombinant human IL-1β (BioLegend 579404) (human, UniProt P01584 117-269)
Test: cell-based or functional assay

Binder	MRC5 IC50
cyclo([TyrEtNAc]W[Phe(4-COOH)]G[Pro(trans-4-NH2)][Trp(4-Cl)(βS-Me)]D[dNMeA]G[Bip(4'-COOH)][4Pal]L[dA][hTyr]) (SMILES CC(=O)NCCOc1ccc(C[C@@H]2NC(=O)[C@H](CCc3ccc(O)cc3)NC(=O)[C@@H](C)NC(=O)[C@H](CC(C)C)NC(=O)[C@H](Cc3ccncc3)NC(=O)[C@H](Cc3ccc(-c4ccc(C(=O)O)cc4)cc3)NC(=O)CNC(=O)[C@@H](C)N(C)C(=O)[C@H](CC(=O)O)NC(=O)[C@H]([C@@H](C)c3c[nH]c4cccc(Cl)c34)NC(=O)[C@@H]3C[C@@H](N)CN3C(=O)CNC(=O)[C@H](Cc3ccc(C(=O)O)cc3)NC(=O)[C@H](Cc3c[nH]c4ccccc34)NC2=O)cc1) [SEQ ID NO: 135 (Example No. 135)]	0.31 nM
cyclo([TyrEtNAc]W[Phe(4-COOH)]G[Pro(trans-4-NH2)][Trp(4-Cl)(βS-Me)]D[dNMeA]G[Bip(4'-COOH)]W[Dap][dA][hTyr]) (SMILES CC(=O)NCCOc1ccc(C[C@@H]2NC(=O)[C@H](CCc3ccc(O)cc3)NC(=O)[C@@H](C)NC(=O)[C@H](CN)NC(=O)[C@H](Cc3c[nH]c4ccccc34)NC(=O)[C@H](Cc3ccc(-c4ccc(C(=O)O)cc4)cc3)NC(=O)CNC(=O)[C@@H](C)N(C)C(=O)[C@H](CC(=O)O)NC(=O)[C@H]([C@@H](C)c3c[nH]c4cccc(Cl)c34)NC(=O)[C@@H]3C[C@@H](N)CN3C(=O)CNC(=O)[C@H](Cc3ccc(C(=O)O)cc3)NC(=O)[C@H](Cc3c[nH]c4ccccc34)NC2=O)cc1) [SEQ ID NO: 145 (Example No. 145)]	0.0748 nM
cyclo([TyrEtNAc]W[Phe(4-COOH)]G[Pro(trans-4-NH2)][Trp(4-Cl)(βS-Me)]D[dNMeA]G[Bip(4'-COOH)]W[Dap(Me2)][dA][hTyr]) (SMILES CC(=O)NCCOc1ccc(C[C@@H]2NC(=O)[C@H](CCc3ccc(O)cc3)NC(=O)[C@@H](C)NC(=O)[C@H](CN(C)C)NC(=O)[C@H](Cc3c[nH]c4ccccc34)NC(=O)[C@H](Cc3ccc(-c4ccc(C(=O)O)cc4)cc3)NC(=O)CNC(=O)[C@@H](C)N(C)C(=O)[C@H](CC(=O)O)NC(=O)[C@H]([C@@H](C)c3c[nH]c4cccc(Cl)c34)NC(=O)[C@@H]3C[C@@H](N)CN3C(=O)CNC(=O)[C@H](Cc3ccc(C(=O)O)cc3)NC(=O)[C@H](Cc3c[nH]c4ccccc34)NC2=O)cc1) [SEQ ID NO: 146 (Example No. 146)]	0.114 nM
cyclo([TyrEtNAc]W[Phe(4-COOH)]G[Pro(trans-4-NH2)][Trp(4-Cl)(βS-Me)]D[dNMeA]G[Bip(4'-COOH)]KS[dA][hTyr]) (SMILES CC(=O)NCCOc1ccc(C[C@@H]2NC(=O)[C@H](CCc3ccc(O)cc3)NC(=O)[C@@H](C)NC(=O)[C@H](CO)NC(=O)[C@H](CCCCN)NC(=O)[C@H](Cc3ccc(-c4ccc(C(=O)O)cc4)cc3)NC(=O)CNC(=O)[C@@H](C)N(C)C(=O)[C@H](CC(=O)O)NC(=O)[C@H]([C@@H](C)c3c[nH]c4cccc(Cl)c34)NC(=O)[C@@H]3C[C@@H](N)CN3C(=O)CNC(=O)[C@H](Cc3ccc(C(=O)O)cc3)NC(=O)[C@H](Cc3c[nH]c4ccccc34)NC2=O)cc1) [SEQ ID NO: 138 (Example No. 138)]	0.214 nM
cyclo([TyrEtNAc]W[Phe(4-COOH)]G[Pro(trans-4-NH2)][Trp(4-Cl)(βS-Me)]D[dNMeA]G[Bip(4'-COOH)]W[Dap][dA][hPhe]) (SMILES CC(=O)NCCOc1ccc(C[C@@H]2NC(=O)[C@H](CCc3ccccc3)NC(=O)[C@@H](C)NC(=O)[C@H](CN)NC(=O)[C@H](Cc3c[nH]c4ccccc34)NC(=O)[C@H](Cc3ccc(-c4ccc(C(=O)O)cc4)cc3)NC(=O)CNC(=O)[C@@H](C)N(C)C(=O)[C@H](CC(=O)O)NC(=O)[C@H]([C@@H](C)c3c[nH]c4cccc(Cl)c34)NC(=O)[C@@H]3C[C@@H](N)CN3C(=O)CNC(=O)[C@H](Cc3ccc(C(=O)O)cc3)NC(=O)[C@H](Cc3c[nH]c4ccccc34)NC2=O)cc1) [SEQ ID NO: 144 (Example No. 144)]	0.0749 nM
cyclo([TyrEtNAc]W[Phe(4-COOH)]G[Pro(trans-4-NH2)][Trp(4-Cl)(βS-Me)]D[dNMeA]G[Bip(4'-COOH)]W[AbuMph][dA][hTyr]) (SMILES CC(=O)NCCOc1ccc(C[C@@H]2NC(=O)[C@H](CCc3ccc(O)cc3)NC(=O)[C@@H](C)NC(=O)[C@H](CCN3CCOCC3)NC(=O)[C@H](Cc3c[nH]c4ccccc34)NC(=O)[C@H](Cc3ccc(-c4ccc(C(=O)O)cc4)cc3)NC(=O)CNC(=O)[C@@H](C)N(C)C(=O)[C@H](CC(=O)O)NC(=O)[C@H]([C@@H](C)c3c[nH]c4cccc(Cl)c34)NC(=O)[C@@H]3C[C@@H](N)CN3C(=O)CNC(=O)[C@H](Cc3ccc(C(=O)O)cc3)NC(=O)[C@H](Cc3c[nH]c4ccccc34)NC2=O)cc1) [SEQ ID NO: 141 (Example No. 141)]	0.177 nM
cyclo([TyrEtNAc]W[Phe(4-COOH)]G[Pro(trans-4-NH2)][Trp(4-Cl)(βS-Me)]D[dNMeA]G[Bip(4'-COOH)]W[Dab][dA][hPhe]) (SMILES CC(=O)NCCOc1ccc(C[C@@H]2NC(=O)[C@H](CCc3ccccc3)NC(=O)[C@@H](C)NC(=O)[C@H](CCN)NC(=O)[C@H](Cc3c[nH]c4ccccc34)NC(=O)[C@H](Cc3ccc(-c4ccc(C(=O)O)cc4)cc3)NC(=O)CNC(=O)[C@@H](C)N(C)C(=O)[C@H](CC(=O)O)NC(=O)[C@H]([C@@H](C)c3c[nH]c4cccc(Cl)c34)NC(=O)[C@@H]3C[C@@H](N)CN3C(=O)CNC(=O)[C@H](Cc3ccc(C(=O)O)cc3)NC(=O)[C@H](Cc3c[nH]c4ccccc34)NC2=O)cc1) [SEQ ID NO: 142 (Example No. 142)]	0.159 nM
cyclo([TyrEtNAc]W[Phe(4-COOH)]G[Pro(trans-4-NH2)][Trp(4-Cl)(βS-Me)]D[dNMeA]G[Bip(4'-COOH)][4Pal][Nva][dA][Cha44F2]) (SMILES CCC[C@@H]1NC(=O)[C@H](Cc2ccncc2)NC(=O)[C@H](Cc2ccc(-c3ccc(C(=O)O)cc3)cc2)NC(=O)CNC(=O)[C@@H](C)N(C)C(=O)[C@H](CC(=O)O)NC(=O)[C@H]([C@@H](C)c2c[nH]c3cccc(Cl)c23)NC(=O)[C@@H]2C[C@@H](N)CN2C(=O)CNC(=O)[C@H](Cc2ccc(C(=O)O)cc2)NC(=O)[C@H](Cc2c[nH]c3ccccc23)NC(=O)[C@H](Cc2ccc(OCCNC(C)=O)cc2)NC(=O)[C@H](CC2CCC(F)(F)CC2)NC(=O)[C@@H](C)NC1=O) [SEQ ID NO: 136 (Example No. 136)]	0.396 nM
cyclo([TyrEtNAc]W[Phe(4-COOH)]G[Pro(trans-4-NH2)][Trp(4-Cl)(βS-Me)]D[dNMeA]G[Bip(4'-COOH)]KS[dDab][hTyr]) (SMILES CC(=O)NCCOc1ccc(C[C@@H]2NC(=O)[C@H](CCc3ccc(O)cc3)NC(=O)[C@@H](CCN)NC(=O)[C@H](CO)NC(=O)[C@H](CCCCN)NC(=O)[C@H](Cc3ccc(-c4ccc(C(=O)O)cc4)cc3)NC(=O)CNC(=O)[C@@H](C)N(C)C(=O)[C@H](CC(=O)O)NC(=O)[C@H]([C@@H](C)c3c[nH]c4cccc(Cl)c34)NC(=O)[C@@H]3C[C@@H](N)CN3C(=O)CNC(=O)[C@H](Cc3ccc(C(=O)O)cc3)NC(=O)[C@H](Cc3c[nH]c4ccccc34)NC2=O)cc1) [SEQ ID NO: 139 (Example No. 139)]	0.133 nM
cyclo([TyrEtNAc]W[Phe(4-COOH)]G[Pro(trans-4-NH2)][Trp(4-Cl)(βS-Me)]D[dNMeA]G[Bip(4'-COOH)]KL[dA][hF3CF3]) (SMILES CC(=O)NCCOc1ccc(C[C@@H]2NC(=O)[C@H](CCc3cccc(C(F)(F)F)c3)NC(=O)[C@@H](C)NC(=O)[C@H](CC(C)C)NC(=O)[C@H](CCCCN)NC(=O)[C@H](Cc3ccc(-c4ccc(C(=O)O)cc4)cc3)NC(=O)CNC(=O)[C@@H](C)N(C)C(=O)[C@H](CC(=O)O)NC(=O)[C@H]([C@@H](C)c3c[nH]c4cccc(Cl)c34)NC(=O)[C@@H]3C[C@@H](N)CN3C(=O)CNC(=O)[C@H](Cc3ccc(C(=O)O)cc3)NC(=O)[C@H](Cc3c[nH]c4ccccc34)NC2=O)cc1) [SEQ ID NO: 137 (Example No. 137)]	0.0939 nM
cyclo([TyrEtNAc]W[Phe(4-COOH)]G[Pro(trans-4-NH2)][Trp(4-Cl)(βS-Me)]D[dNMeA]G[Bip(4'-COOH)]W[AbuMph][dA]G) (SMILES CC(=O)NCCOc1ccc(C[C@@H]2NC(=O)CNC(=O)[C@@H](C)NC(=O)[C@H](CCN3CCOCC3)NC(=O)[C@H](Cc3c[nH]c4ccccc34)NC(=O)[C@H](Cc3ccc(-c4ccc(C(=O)O)cc4)cc3)NC(=O)CNC(=O)[C@@H](C)N(C)C(=O)[C@H](CC(=O)O)NC(=O)[C@H]([C@@H](C)c3c[nH]c4cccc(Cl)c34)NC(=O)[C@@H]3C[C@@H](N)CN3C(=O)CNC(=O)[C@H](Cc3ccc(C(=O)O)cc3)NC(=O)[C@H](Cc3c[nH]c4ccccc34)NC2=O)cc1) [SEQ ID NO: 140 (Example No. 140)]	0.515 nM
cyclo([TyrEtNAc]W[Phe(4-COOH)]G[Pro(trans-4-NH2)][Trp(4-Cl)(βS-Me)]D[dNMeA]G[Bip(4'-COOH)]W[Dab][dA][hTyr]) (SMILES CC(=O)NCCOc1ccc(C[C@@H]2NC(=O)[C@H](CCc3ccc(O)cc3)NC(=O)[C@@H](C)NC(=O)[C@H](CCN)NC(=O)[C@H](Cc3c[nH]c4ccccc34)NC(=O)[C@H](Cc3ccc(-c4ccc(C(=O)O)cc4)cc3)NC(=O)CNC(=O)[C@@H](C)N(C)C(=O)[C@H](CC(=O)O)NC(=O)[C@H]([C@@H](C)c3c[nH]c4cccc(Cl)c34)NC(=O)[C@@H]3C[C@@H](N)CN3C(=O)CNC(=O)[C@H](Cc3ccc(C(=O)O)cc3)NC(=O)[C@H](Cc3c[nH]c4ccccc34)NC2=O)cc1) [SEQ ID NO: 143 (Example No. 143)]	0.23 nM
